Here are results for seven molecules from patent publication US20200024316A1 (GENOIMMUNE THERAPEUTICS, published 2020).

B1: wild-type peptide TLISSLRPI (peptide)
peptide: TLISSLRPI
notes: Made by solid phase synthesis, purified by reverse phase HPLC, purity >90%
B2: variant peptide TLISSLMPL (peptide)
peptide: TLISSLMPL
B3: variant peptide TLISSLMPV (peptide)
peptide: TLISSLMPV
B4: variant peptide TMISSLMPL (peptide)
peptide: TMISSLMPL
B5: mutant peptide TLISSLMPI (peptide)
peptide: TLISSLMPI
notes: Made by solid phase synthesis, purity >90%; also called peptide (a); tumor antigen peptide
B6: variant peptide TMISSLMPV (peptide)
peptide: TMISSLMPV
B7: variant peptide TMISSLMPI (peptide)
peptide: TMISSLMPI

The target of this assay is T1, HLA-A0201 on T2 cells (human).
T1 construct: MHC class I molecule on T2 cells; also called HLA-A0201 molecule; HLA-A2
Put plainly: T2 cell HLA-A0201 assay, flow cytometry with FITC anti-HLA-A0201 mAb, peptide 100 µM. In general terms: In flow cytometry, cells or beads pass a laser one at a time.
Method: Cells were collected by centrifugation of the cell culture at 200 g for 5 minutes. […] The mean fluorescence intensity (MFI) was then detected and analyzed by flow cytometer (BD FACSJazz™) and its software. The fluorescence index (FI) was calculated by using the following formula:
As for B1, the Average fluorescence intensity worked out at 672 and the “FI (fluorescence index)” value was determined as 1.99.
For B2 the same measures were 692 and 2.08.
For B3, in that order: 714 and 2.18.
For the molecule B4, the Average fluorescence intensity was 764 and the “FI (fluorescence index)” value was determined as 2.4.
B5: the Average fluorescence intensity was found to be 683 and the “FI (fluorescence index)” value amounted to 2.04.
Turning to B6, the Average fluorescence intensity is 776 and the “FI (fluorescence index)” value is 2.46.
For the molecule B7, the Average fluorescence intensity stood at 701 and the “FI (fluorescence index)” value worked out at 2.12.
